Experimental data as given in patent US20150322135A1 (Pfizer, published 2015).
Changes are numbered by the printed parent chain. Names and notes keep the numbering of the source.

B1: Fab-CH23-CH23 (tandem CH23 construct comprising two engineered Fc polypeptides) (Fc fusion)
heavy: EVQLVESGGGLVQPGGSLRLSCAASGFTFSNYDMYWVRQTTGKGLEWVSAIGTAGDTYYPGSVKGRFTISRENAKNSLYLQMNSLRAGDTAVYYCAREKSSTSAFDYWGQGTLVTVSSASTKGPSVFPLAPSSKSTSGGTAALGCLVKDYFPEPVTVSWNSGALTSGVHTFPAVLQSSGLYSLSSVVTVPSSSLGTQTYICNVNHKPSNTKVDKKVEPKSCDKTHTGGGGSGGGGSGGPSVFLFPPKPKDTLMISRTPEVTCVVVDVSHEDPEVKFNWYVDGVEVHNAKTKPREEQYNSTYRVVSVLTVLHQDWLNGKEYKCKVSNKALPAPIEKTISKAKGQPREPQVYTLPPSREEMTKNQVNLTCLVKGFYPSDIAVEWESNGQPENNYKTTPPVLDSDGSFFLNSTLTVDKSRWQQGNVFSCSVMHEALHNHYTQKSLSLSPGGGGSGGGGSGGGGSGGGGSGGPSVFLFPPKPKDTLMISRTPEVTCVVVDVSHEDPEVKFNWYVDGVEVHNAKTKPREEQYNSTYRVVSVLTVLHQDWLNGKEYKCKVSNKALPAPIEKTISKAKGQPREPQVYTLPPSREEMTKNQVNLTCLVKGFYPSDIAVEWESNGQPENNYKTTPPVLDSDGSFFLNSTLTVDKSRWQQGNVFSCSVMHEALHNHYTQKSLSLSPGK
light: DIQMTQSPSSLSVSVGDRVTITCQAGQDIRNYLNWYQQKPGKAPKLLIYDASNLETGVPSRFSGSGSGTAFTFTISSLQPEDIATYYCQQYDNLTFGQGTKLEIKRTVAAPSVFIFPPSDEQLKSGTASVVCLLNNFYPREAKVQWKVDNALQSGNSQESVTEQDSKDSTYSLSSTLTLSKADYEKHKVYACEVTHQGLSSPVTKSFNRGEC
modifications: N-linked glycans at Asn297 (natural) and engineered Asn364 and Asn407 (EU numbering) in each of the two CH23 units
notes: Made in CHO cells; also called Fab-CH23-4XGS-CH23; tandem CH23-CH23
B2: Fab-CH23-HEK (Fab-CH23 [N364/N407] produced from HEK293 transient expression system) (Fc fusion)
heavy: EVQLVESGGGLVQPGGSLRLSCAASGFTFSNYDMYWVRQTTGKGLEWVSAIGTAGDTYYPGSVKGRFTISRENAKNSLYLQMNSLRAGDTAVYYCAREKSSTSAFDYWGQGTLVTVSSASTKGPSVFPLAPSSKSTSGGTAALGCLVKDYFPEPVTVSWNSGALTSGVHTFPAVLQSSGLYSLSSVVTVPSSSLGTQTYICNVNHKPSNTKVDKKVEPKSCDKTHTGGGGSGGGGSGGPSVFLFPPKPKDTLMISRTPEVTCVVVDVSHEDPEVKFNWYVDGVEVHNAKTKPREEQYNSTYRVVSVLTVLHQDWLNGKEYKCKVSNKALPAPIEKTISKAKGQPREPQVYTLPPSREEMTKNQVNLTCLVKGFYPSDIAVEWESNGQPENNYKTTPPVLDSDGSFFLNSTLTVDKSRWQQGNVFSCSVMHEALHNHYTQKSLSLSPGK
light: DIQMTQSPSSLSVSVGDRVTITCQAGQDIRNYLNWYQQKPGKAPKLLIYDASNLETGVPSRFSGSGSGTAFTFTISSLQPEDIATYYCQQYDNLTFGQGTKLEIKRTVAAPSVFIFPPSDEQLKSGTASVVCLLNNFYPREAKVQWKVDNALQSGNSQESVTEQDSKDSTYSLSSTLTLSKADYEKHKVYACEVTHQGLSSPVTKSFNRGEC
modifications: N-linked glycans at Asn297 (natural) and engineered Asn364 and Asn407 (EU numbering), HEK293 glycoform
notes: Same construct as Fab-CH23, made in HEK293 cells instead of CHO cells
B3: Fab-CH23 (Fab-CH23-N364/N407), Fab of an anti-KLH antibody fused to CH23 (Fc fusion)
heavy: B2 heavy
light: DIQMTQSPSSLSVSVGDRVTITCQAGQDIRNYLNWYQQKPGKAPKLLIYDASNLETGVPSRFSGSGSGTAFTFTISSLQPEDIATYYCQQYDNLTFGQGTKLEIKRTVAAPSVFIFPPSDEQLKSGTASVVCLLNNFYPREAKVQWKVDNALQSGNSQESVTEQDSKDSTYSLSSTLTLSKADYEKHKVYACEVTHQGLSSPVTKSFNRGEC
modifications: N-linked glycans at Asn297 (natural) and engineered Asn364 and Asn407 (EU numbering)
notes: also called Fab-monoFc
B4: Fab-CH23[M428L/N434S] (FcRn enhancement variant) (Fc fusion)
heavy: B2 heavy with M429L, N435S
light: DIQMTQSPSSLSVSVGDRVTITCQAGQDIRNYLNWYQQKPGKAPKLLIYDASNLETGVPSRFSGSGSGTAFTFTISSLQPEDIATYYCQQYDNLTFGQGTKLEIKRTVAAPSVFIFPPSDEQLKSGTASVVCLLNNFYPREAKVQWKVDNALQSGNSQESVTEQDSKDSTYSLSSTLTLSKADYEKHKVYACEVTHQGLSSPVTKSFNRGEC
modifications: N-linked glycans at Asn297 (natural) and engineered Asn364 and Asn407 (EU numbering)
notes: Made in CHO cells; also called Fab-CH23 [M428L/N434L]

Each binder was assayed against T1, Mouse FcRn protein (mouse, UniProt Q61559 22-297) (assay: SPR avidity format: FcRn localized on the chip surface).
T1 construct: Bought protein; called soluble in the 1-to-1 assay and amine-coupled to the chip in the avidity and pH-switch assays; also called soluble mouse FcRn protein; neonatal Fc receptor
T1 sequence (Q61559 22-297): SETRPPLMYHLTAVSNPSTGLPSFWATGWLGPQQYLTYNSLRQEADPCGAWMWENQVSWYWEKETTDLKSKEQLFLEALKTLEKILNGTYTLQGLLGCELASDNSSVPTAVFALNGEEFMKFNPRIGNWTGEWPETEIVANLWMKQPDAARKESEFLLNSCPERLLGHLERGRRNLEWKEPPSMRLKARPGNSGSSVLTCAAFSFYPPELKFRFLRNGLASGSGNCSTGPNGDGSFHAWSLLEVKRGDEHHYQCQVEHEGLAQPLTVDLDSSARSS
Method: (§1) The FcRn binding assays were carried out using a surface plasmon resonance (SPR) biosensor, Biacore 3000 (Biacore, Uppsala, Sweden). The sensor chip CM5, surfactant P20, N-ethyl-N-(3-dimethylaminopropyl)carbodiimide (EDC), N-hydroxysuccinimide (NHS), and 1 M ethanolamine (pH 8.5) were purchased from GE Healthcare (Piscataway, N.J.). The SPR experiments were conducted at 25° C. in PBS buffer (pH 6.0) with 0.005% P20. A Mouse FcRn protein was purchased from ARVYS Proteins, Inc. (Stamford, Conn.). All the experiments were repeated three times.
(§2) Avidity Assay: —In order to assess the avidity of analyte (molecule in mobile phase), the SPR-based “avidity assay format” was performed as previously described. See, e.g., Zalevsky et al., Nature Biotech. 28, 157-159; Yeung et al., J. Immunol. 182, 7663-7671 (2009); and Suzuki et al., J. Immunol. 184, 1968-1976 (2010). That is, mouse FcRn protein was immobilized on a CM5 sensor chip by the amine coupling method as described above. The equilibrium binding was measured by injecting 30 μL, of Fab-monoFc variants over the FcRn surface at flow rate of 2 μL/min. The sensor surfaces were regenerated by running 100 mM tris-HCl, pH 8.0 for 1 min.
For B1, the “fold higher affinity than Fab-CH23 (avidity assay)” value was roughly 40 fold.

The binders below were run against T1, Mouse FcRn protein (assay: SPR pH-switch assay: mouse FcRn immobilised, variant bound at pH 6.0, percent bound in the dissociation phase at neutral pH against pH 6.0).
Method: as §1
pH-Switch Assay: In order to evaluate the efficiency of dissociation of Fab-monoFc variants from FcRn at neutral pH, the “pH-switch assay” modified from the method that was previously reported was employed. See, e.g., Wang et al., Drug Metab. Dispos. 39, 1469-1477 (2011). In this assay, mouse FcRn protein was immobilized on a CM5 sensor chip by the amine coupling method. The binding was measured by injecting 100 uM of Fab-monoFc variants in running buffer (PBS, pH 6.0) followed by injection of either running buffer (PBS, pH 6.0) or neutral buffer (PBS, pH 7.2) alone over the FcRn surface at flow rate of 50 μL/min.
B1 was tested, and the “% bound” value was 14%.
For B2, the “% bound” value was 1.1%.
With B3 the “% bound” value was 5.6%.
B4 was tested, and the “% bound” value was 20%.

What follows are binders tested against T1, Mouse FcRn protein (assay: SPR avidity format: mouse FcRn immobilised on CM5 chip, variant injected, pH 6.0, steady state).
Method: as §1, §2
Work on B1 yielded a Kd of 4.5 nM.
For B2, the Kd was 180 nM.
B3 was tested, and the Kd was 180 nM.
B4 was tested, and the Kd was 35 nM.

These binders were tested against T1, Mouse FcRn protein (assay: SPR 1-to-1 format: variant amine-coupled to CM5 chip, soluble mouse FcRn injected, pH 6.0, steady state).
Method: as §1
1-to-1 binding Assay—Immobilization of engineered N-glycosylated Fc variants or Fab-mono engineered N-glycosylated Fc variants on a CM5 sensor chip was conducted by the amine coupling method. Briefly, 20 μM protein solution was diluted 20 times in 10 mM acetate (pH 4.5) and injected onto a biosensor surface which had been pre-activated with a 20 uL injection of 1:1 mixture of 200 mM EDC and 50 mM NHS, followed by the injection of 1 M ethanolamine-HCl (pH 8.5). For reference surface, one flow cell was activated by the EDC-NHS mixture and deactivated by ethanol amine without protein. The equilibrium binding was measured by injecting 150 uL of soluble mouse FcRn protein at flow rate of 5 uL/min. The sensor surfaces were regenerated by running PBS buffer (pH 7.2) for 1 min. We observed that all the binding curves of each concentration reached the plateau at the end of injection (30 min).
In the case of B1, the Kd is reported as 250 nM.
B2 was tested, and the Kd was 230 nM.
With B3 the Kd was 250 nM.
Work on B4 yielded a Kd of 68 nM.
